Experimental findings from patent US20160015827A1 (BIOALLIANCE C V, published 2016) are described below.

Numbering of substitutions follows the chain as printed. Names may count otherwise.

In assay [1] the target is T1, human folate receptor alpha (FRA) (human, UniProt P15328 25-234).
T1 construct: In the assays FRA is the endogenous protein on FRA-expressing human cancer cell lines (SK-OV-3, OVCAR-3, OVCAR-3B, NCI-H2110, NCI-H292); also called human FRA
The experiment in a line: flow cytometry on SK-OV-3 cells, 1.1 µg/mL. How it is done: (§1) 1×10⁵ cells were seeded per well in a v-bottomed 96-well plate and incubated with 50 μl of the unconjugated Abs or the ADCs at titrated concentrations or isotype control antibody human IgG at 10 μg/mL. After 60 minutes of incubation at 4° C., cells were washed once with 200 μl FACS buffer (1×PBS containing 1% FBS), stained with 50 μl of 1 μg/ml goat F(ab′)2-anti-human IgG (H+L)-RPE or goat anti-human IgG-RPE (SOUTHERN BIOTECH®, Cat. No. 2043-09 or 2040-09) in FACS buffer and then incubated at 4° C. for 30 min Cells were washed once with FACS buffer and analyzed by flow cytometer (BD LSR, BD Life Sciences).
(§2) The binding activities of site-specific conjugates of hLK26-Cys variants-Tap18Hr1 were evaluated by flow cytometric analysis in ovarian cancer SK-OV-3 and OVCAR-3B (Table 9-10) and lung cancer NCI-H2110 and NCI-H292 (Table 11-12) cells. The Mean fluorescence intensity (MFI) values in the tables represent binding activity of ADCs at tested concentration. […] The IgG4p variants-Tap18Hr1 conjugates also bind to all the FRA positive cancer cells tested here, but the fluorescent intensities were generally lower than those observed with IgG1 variants. This decrease in binding activity is likely attributed to IgG4 isotype rather than cysteine mutation. Overall, the site-specific conjugated hLK26-Cys variants retain antigen reactivity to the ovarian and lung cancer cells tested.

Assay [2] deals with T1, human folate receptor alpha (FRA). The experiment in a line: flow cytometry on OVCAR-3B cells, 1.1 µg/mL. As for the experimental part:
as §1, §2
Background: Flow cytometry measures light scatter and fluorescence of single cells or particles in a stream.

Assay [3] has the same target. Briefly: flow cytometry on NCI-H292 cells, 3.3 µg/mL. As for the experimental part:
as §1, §2

The target is the same in assay [4]. Briefly: flow cytometry on NCI-H2110 cells, 3.3 µg/mL. How it is done:
as §1, §2

T1 sequence (P15328 25-234 limits assumed): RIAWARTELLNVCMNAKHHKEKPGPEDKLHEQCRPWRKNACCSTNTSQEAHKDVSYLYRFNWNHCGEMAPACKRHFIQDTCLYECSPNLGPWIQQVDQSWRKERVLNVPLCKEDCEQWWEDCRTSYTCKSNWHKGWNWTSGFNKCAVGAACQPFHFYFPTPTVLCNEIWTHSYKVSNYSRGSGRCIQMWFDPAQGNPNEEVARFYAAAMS

B1: hLK26-T155C-IgG4p-Tap18Hr1 (antibody, name in EU numbering)
heavy: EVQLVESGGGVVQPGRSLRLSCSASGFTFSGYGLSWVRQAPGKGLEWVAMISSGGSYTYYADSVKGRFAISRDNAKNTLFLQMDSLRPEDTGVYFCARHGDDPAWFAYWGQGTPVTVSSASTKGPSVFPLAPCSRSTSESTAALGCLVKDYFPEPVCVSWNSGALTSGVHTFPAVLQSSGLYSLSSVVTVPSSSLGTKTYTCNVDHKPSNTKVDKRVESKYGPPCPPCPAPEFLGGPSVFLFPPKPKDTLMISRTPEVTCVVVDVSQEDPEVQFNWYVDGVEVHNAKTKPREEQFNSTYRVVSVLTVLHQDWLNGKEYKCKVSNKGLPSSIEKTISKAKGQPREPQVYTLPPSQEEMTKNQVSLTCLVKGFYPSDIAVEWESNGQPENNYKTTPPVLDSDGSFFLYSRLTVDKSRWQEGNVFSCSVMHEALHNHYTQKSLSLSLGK
light: DIQLTQSPSSLSASVGDRVTITCSVSSSISSNNLHWYQQKPGKAPKPWIYGTSNLASGVPSRFSGSGSGTDYTFTISSLQPEDIATYYCQQWSSYPYMYTFGQGTKVEIKRTVAAPSVFIFPPSDEQLKSGTASVVCLLNNFYPREAKVQWKVDNALQSGNSQESVTEQDSKDSTYSLSSTLTLSKADYEKHKVYACEVTHQGLSSPVTKSFNRGEC
modifications: Tap18Hr1 linker-drug on the introduced Cys 155 (EU numbering)
notes: Site-specific ADC
Turning to B1, the MFI in assay [1] was determined as 1890 MFI; in assay [2] it was 806 MFI; in assay [3], 1180 MFI; in assay [4] it was 494 MFI.

B2: hLK26-IgG1 (antibody)
heavy: not shown
light: B1 light
notes: Humanized anti-FRA antibody, human IgG1 / kappa, unconjugated; also called naked Ab hLK26-IgG1; unconjugated hLK26-IgG1
As for B2, the values for the MFI in assay [2] and in assay [3] were 1150 MFI and 1460 MFI, respectively.

B3: hLK26-S442C-IgG1-Tap18Hr1 (antibody, name in EU numbering)
heavy: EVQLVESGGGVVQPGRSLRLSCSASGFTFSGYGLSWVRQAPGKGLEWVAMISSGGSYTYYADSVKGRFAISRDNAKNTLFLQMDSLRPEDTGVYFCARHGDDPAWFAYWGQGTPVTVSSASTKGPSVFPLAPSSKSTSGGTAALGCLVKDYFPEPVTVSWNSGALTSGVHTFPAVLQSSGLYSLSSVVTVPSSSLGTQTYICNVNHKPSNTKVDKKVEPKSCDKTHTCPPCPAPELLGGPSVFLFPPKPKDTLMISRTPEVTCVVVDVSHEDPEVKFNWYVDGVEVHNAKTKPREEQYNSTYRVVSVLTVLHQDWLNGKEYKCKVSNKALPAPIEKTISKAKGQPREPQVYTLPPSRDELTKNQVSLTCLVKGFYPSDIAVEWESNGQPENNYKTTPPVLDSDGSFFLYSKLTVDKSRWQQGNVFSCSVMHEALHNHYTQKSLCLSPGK
light: B1 light
modifications: Tap18Hr1 linker-drug on the introduced Cys 442 (EU numbering)
notes: Site-specific ADC
As for B3, the MFI in assay [1] turned out to be 2080 MFI; in assay [2] it was 967 MFI; in assay [3], 1280 MFI; in assay [4] it was 605 MFI.

B4: hLK26-T199C-IgG4p-Tap18Hr1 (antibody, name in EU numbering)
heavy: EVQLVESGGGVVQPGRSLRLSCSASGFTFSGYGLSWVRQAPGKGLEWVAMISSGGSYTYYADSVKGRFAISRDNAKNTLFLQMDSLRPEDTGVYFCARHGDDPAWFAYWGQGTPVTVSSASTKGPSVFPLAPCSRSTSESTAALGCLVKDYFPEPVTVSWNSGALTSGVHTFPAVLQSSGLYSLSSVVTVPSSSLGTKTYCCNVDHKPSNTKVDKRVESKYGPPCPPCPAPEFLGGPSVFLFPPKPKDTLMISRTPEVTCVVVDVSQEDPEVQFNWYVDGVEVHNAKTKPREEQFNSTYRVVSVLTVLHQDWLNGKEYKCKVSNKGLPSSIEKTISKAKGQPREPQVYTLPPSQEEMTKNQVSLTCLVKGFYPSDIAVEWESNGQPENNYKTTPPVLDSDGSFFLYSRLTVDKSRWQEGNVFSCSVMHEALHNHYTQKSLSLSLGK
light: B1 light
modifications: Tap18Hr1 linker-drug on the introduced Cys 199 (EU numbering)
notes: Site-specific ADC
As to B4, the MFI in assay [1] was found to be 966 MFI; in assay [4], 898 MFI.

B5: hLK26-T206C-IgG1-Tap18Hr1 (antibody, name in EU numbering)
heavy: not shown
light: B1 light with T209C
modifications: Tap18Hr1 linker-drug on the introduced Cys 206 (EU numbering)
notes: Site-specific ADC with kappa light chain mutant
In the case of B5, the values for the MFI in assay [1] and in assay [4] were 1270 MFI and 1180 MFI, respectively.

B6: hLK26-L201C-IgG4p-Tap18Hr1 (antibody, name in EU numbering)
heavy: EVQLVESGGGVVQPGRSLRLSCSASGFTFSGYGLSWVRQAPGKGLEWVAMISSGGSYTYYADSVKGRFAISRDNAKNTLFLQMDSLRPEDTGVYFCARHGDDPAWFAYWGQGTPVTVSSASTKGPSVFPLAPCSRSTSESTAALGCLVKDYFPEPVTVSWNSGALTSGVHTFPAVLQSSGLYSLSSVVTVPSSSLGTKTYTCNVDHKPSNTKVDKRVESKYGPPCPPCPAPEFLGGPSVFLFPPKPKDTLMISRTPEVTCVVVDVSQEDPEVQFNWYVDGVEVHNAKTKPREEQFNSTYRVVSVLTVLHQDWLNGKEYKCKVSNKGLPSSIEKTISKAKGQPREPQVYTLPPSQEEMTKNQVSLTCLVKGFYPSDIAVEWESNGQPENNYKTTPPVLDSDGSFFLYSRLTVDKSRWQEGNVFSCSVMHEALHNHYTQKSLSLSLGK
light: B1 light with L204C
modifications: Tap18Hr1 linker-drug on the introduced Cys 201 (EU numbering)
notes: as for B5
On to B6, for which the MFI is 1000 MFI in assay [1] and 890 MFI in assay [4].

B7: hLK26-T155C-IgG1-Tap18Hr1 (antibody, name in EU numbering)
heavy: not shown
light: B1 light
modifications: Tap18Hr1 linker-drug on the introduced Cys 155 (EU numbering)
notes: Site-specific ADC
In the case of B7, the MFI in assay [1] is 2470 MFI; in assay [2], 1060 MFI; in assay [3] it was 1450 MFI; in assay [4], 649 MFI.

B8: hLK26-S442C-IgG4p-Tap18Hr1 (antibody, name in EU numbering)
heavy: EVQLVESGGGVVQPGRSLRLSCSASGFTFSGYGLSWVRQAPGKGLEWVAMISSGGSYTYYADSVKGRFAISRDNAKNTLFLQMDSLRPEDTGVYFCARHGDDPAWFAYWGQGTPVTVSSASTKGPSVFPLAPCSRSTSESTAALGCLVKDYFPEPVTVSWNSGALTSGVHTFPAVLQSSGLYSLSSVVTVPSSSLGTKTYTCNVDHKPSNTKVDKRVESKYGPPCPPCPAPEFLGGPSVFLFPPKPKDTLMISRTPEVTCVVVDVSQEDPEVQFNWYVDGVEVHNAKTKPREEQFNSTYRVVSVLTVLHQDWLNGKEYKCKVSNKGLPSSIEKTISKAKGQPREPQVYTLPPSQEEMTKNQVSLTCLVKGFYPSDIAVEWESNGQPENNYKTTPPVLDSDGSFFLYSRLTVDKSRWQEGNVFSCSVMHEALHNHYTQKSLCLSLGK
light: B1 light
modifications: Tap18Hr1 linker-drug on the introduced Cys 442 (EU numbering)
notes: Site-specific ADC
For the molecule B8, the MFI in assay [1] came to 1880 MFI; in assay [2], 769 MFI; in assay [3], 1090 MFI; in assay [4], 479 MFI.
